Source: paper PMC3547825 (PLoS Computational Biology, 2013)

Target: the molecule itself

B1: wild-type α-hemolysin (WT-HL) (natural protein)
chain: ADSDINIKTGTTDIGSNTTVKTGDLVTYDKENGMHKKVFYSFIDDKNHNKKLLVIRTKGTIAGQYRVYSEEGANKSGLAWPSAFKVQLQLPDNEVAQISDYYPRNSIDTKEYMSTLTYGFNGNVTGDDTGKIGGLIGANVSIGHTLKYVQPDFKTILESPTDKKVGWKVIFNNMVNQNWGPYDRDSWNPVYGNQLFMKTRNGSMKAADNFLDPNKASSLLSSGFSPDFATVITMDRKASKQQTNIDVIYERVRDDYQLHWTSTNWKGTNTKDKWIDRSSERYKIDWEKEEMTN
stoichiometry N: 7
